B1: TRF1-Interacting Nuclear factor 2 (TIN2), full-length human (natural protein)
chain: ATPLVAGPAALRFAAAASWQVVRGRCVEHFPRVLEFLRSLRAVAPGLVRYRHHERLCMGLKAKVVVELILQGRPWAQVLKALNHHFPESGPIVRDPKATKQDLRKILEAQETFYQQVKQLSEAPVDLASKLQELEQEYGEPFLAAMEKLLFEYLCQLEKALPTPQAQQLQDVLSWMQPGVSITSSLAWRQYGVDMGWLLPECSVTDSVNLAEPMEQNPPQQQRLALHNPLPKAKPGTHLPQGPSSRTHPEPLAGRHFNLAPLGRRRVQSQWASTRGGHKERPTVMLFPFRNLGSPTQVISKPESKEEHAIYTADLAMGTRAASTGKSKSPCQTLGGRALKENPVDLPATEQKENCLDCYMDPLRLSLLPPRARKPVCPPSLCSSVITIGDLVLDSDEEENGQGEGKESLENYQKTKFDTLIPTLCEYLPPSGHGAIPVSSCDCRDSSRPL
modifications: Alexa Fluor 488 label where used labeled (site not stated); unlabeled in the TRF1/TRF2 cross-correlation experiment and in SEC
B2: R5 telomeric duplex (five repeats) (dsDNA)
DNA 1: GTTAGGGTTAGGGTTAGGGTTAGGGTTAGGGTTAG
DNA 2: CTAACCCTAACCCTAACCCTAACCCTAACCCTAAC

Columns and labels:
[1] = target: T1, Telomere Repeat-binding Factor 1 (TRF1), full-length human (human, UniProt P54274 1-439, Alexa Fluor 594 or Alexa Fluor 488 label where used labeled (site not stated); unlabeled where used as competitor and in MST); assay: MST; Alexa Fluor 488 labeled TIN2 incubated with different concentrations of TRF1 or TRF2; 50 mM sodium phosphate pH 7.0, 50 mM NaCl; 12 °C; apparent KD; settings: both partners purified
T1 construct: TRF1, human, full-length; Removal of the His tag is not mentioned
T1 sequence (looked up): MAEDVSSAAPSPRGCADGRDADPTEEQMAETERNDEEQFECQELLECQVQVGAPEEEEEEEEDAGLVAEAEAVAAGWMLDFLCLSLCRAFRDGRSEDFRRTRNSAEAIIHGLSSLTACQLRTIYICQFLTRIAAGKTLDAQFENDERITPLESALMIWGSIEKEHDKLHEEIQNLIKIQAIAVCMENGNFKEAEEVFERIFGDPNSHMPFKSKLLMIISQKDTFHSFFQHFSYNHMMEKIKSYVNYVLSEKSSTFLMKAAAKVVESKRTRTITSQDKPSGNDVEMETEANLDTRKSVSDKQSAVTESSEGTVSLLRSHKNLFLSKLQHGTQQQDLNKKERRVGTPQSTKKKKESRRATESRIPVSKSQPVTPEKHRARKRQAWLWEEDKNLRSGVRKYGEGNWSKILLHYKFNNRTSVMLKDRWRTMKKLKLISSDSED

[2] = target: T2, Telomere Repeat-binding Factor 2 (TRF2), full-length human (human, UniProt Q15554 1-542, Alexa Fluor 594 or Alexa Fluor 488 label where used labeled (site not stated); unlabeled where used as competitor and in MST); assay: as above; settings: both partners purified
T2 construct: TRF2, human, full-length; Removal of the His tag is not mentioned
T2 sequence (looked up): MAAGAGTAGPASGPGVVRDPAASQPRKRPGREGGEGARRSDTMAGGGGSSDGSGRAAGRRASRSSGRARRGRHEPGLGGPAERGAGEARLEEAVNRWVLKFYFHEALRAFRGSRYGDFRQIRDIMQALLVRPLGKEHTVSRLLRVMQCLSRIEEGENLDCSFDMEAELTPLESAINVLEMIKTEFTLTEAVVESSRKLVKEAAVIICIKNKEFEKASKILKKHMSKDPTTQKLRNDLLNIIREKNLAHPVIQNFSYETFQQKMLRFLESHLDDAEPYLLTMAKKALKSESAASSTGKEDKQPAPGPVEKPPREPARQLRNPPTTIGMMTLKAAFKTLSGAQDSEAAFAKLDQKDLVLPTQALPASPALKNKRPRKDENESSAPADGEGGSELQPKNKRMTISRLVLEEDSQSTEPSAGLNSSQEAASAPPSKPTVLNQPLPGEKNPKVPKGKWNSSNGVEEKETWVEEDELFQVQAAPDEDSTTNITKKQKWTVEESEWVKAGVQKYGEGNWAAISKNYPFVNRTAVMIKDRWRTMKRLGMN

TRF1;TIN2 = TRF1;TIN2 (human;human, UniProt P54274;Q9BSI4 1-439;1-451, |); assay: fluorescence anisotropy; TRF1 5 uM:TIN2 2.5 uM (2:1) stock titrated into 7.5 nM DNA; KD only in figure; 50 mM sodium phosphate pH 7.0, 50 mM NaCl, 25 C; 7.5 nM Alexa Fluor 488-labeled DNA; 2 min incubation per titration step; settings: protein: recombinant;recombinant; chain copies: 2;1; (described only as annealed with its complementary strand)

Binder | Kd [1] [nM] | Kd [2] [nM] | binding result (TRF1;TIN2)
B1 | 240 | 360 | –
B2 | – | – | binds
